In US10697970B2, “S100A9 levels for predicting lenalidomide and erythropoietin responsiveness” (H. LEE MOFFITT CANCER CENTER AND RESEARCH INSTITUTE, INC., priority 2015, dated 2020):

Key:
MDS BM-MNC [1] = assay: Pyroptosis flow cytometry panel in MDS BM-MNC incubated with autologous BM plasma; assay type: cell-based, human
Procedure: For human samples, treated and untreated BM-MNC were incubated overnight in IMDM, supplemented with 10% autologous BM plasma. Subsequently, cells were harvested, washed twice in 1×PBS, and stained with LIVE/DEAD Violet fluorescent reactive dye according to the manufacturer's protocol (Life Technologies). Cells were resuspended in 1×PBS with 2% BSA, and incubated at room temperature for 15 minutes to block non-specific binding. After washing, cells were stained with 30×FAM-FLICA® Caspase-1 and Caspase-3/7 solution at a ratio of 1:30 for 2 hours at 37° C. Cells were washed and stained for cell surface receptors using CD38:PE-CF594, CD33:BV711, CD34:APC (BD Biosciences), and CD71:PE-Cyanine7 (eBioscience). All antibodies were diluted 1:20, and cells were stained for 30 minutes at 4° C. Cells were washed, resuspended in 1× binding buffer, and stained with Annexin-V:Cy5.5 at a dilution of 1:20 for 15 minutes at room temperature (BD Biosciences). 1× binding buffer was added to a final volume of 400 μL. Sample acquisitions were carried out using a BD LSR II flow cytometer and FACSDiva software (BD Biosciences). Calibration of the flow cytometer was carried out prior to each experiment using Rainbow Mid-Range Fluorescent Particles (BD Biosciences). To establish fluorescence compensation settings, ArC Amine Reactive Compensation Beads were used for LIVE/DEAD Violet staining (Life Technologies), and BD CompBead Plus Anti-Mouse Ig κ/Negative Control (BSA) Compensation Plus Particles were used for surface receptor conjugates (BD Biosciences). Data were analyzed using FlowJo 9.7.5 software (FlowJo, LLC, Ashland, Oreg.).

MDS BM-MNC [2] = assay: qPCR of pyroptosis-related genes in lower-risk MDS BM-MNC treated with CD33-IgG1; assay type: cell-based, human; conditions: lower-risk MDS BM-MNC (n=5), 24 hours, versus autologous BM plasma alone
Procedure: RNA was isolated from BM-MNC using the RNeasy Mini Kit (Qiagen). cDNA was produced using the iScript cDNA Synthesis Kit (Bio-Rad). Sequences for primers can be found in Table 1. GAPDH mRNA was used for transcript normalization. cDNA was amplified using the iQ SYBR Green Supermix and the CFX96 Real-Time PCR Detection System (Bio-Rad). PCR conditions were as follows: 10 minutes at 95° C., followed by 40 cycles of amplification (15 seconds at 95° C. and 1 minute at 60° C.). Relative gene expression was calculated using the […] method.

B1: CD33-IgG1: S100A9 high-affinity chimeric (CD33-IgG1) decoy receptor (protein)
chain: DPNFWLQVQESVTVQEGLCVLVPCTFFHPIPYYDKNSPVHGYWFREGAIISRDSPVATNKLDQEVQEETQGRFRLLGDPSRNNCSLSIVDARRRDNGSYFFRMERGSTKYSYKSPQLSVHVTDLTHRPKILIPGTLEPGHSKNLTCSVSWACEQGTPPIFSWLSAAPTSLGPRTTHSSVLIITPRPQDHGTNLTCQVKFAGAGVTTERTIQLNVTYVPQNPTTGIFPGDGSGKQETRAGVVH
modifications: left off: a dimerising Fc or GST
MDS BM-MNC [1]; CD33+ immature myeloids, 0.5 μg CD33-IgG1 or 0.1 μM IRAK4 inhibitor, 24 hours
  reduction of fraction of pyroptotic cells, maximum lineage-specific change, CD33+ cells: 68%
MDS BM-MNC [1]; CD34+CD38+ progenitor cells, 0.5 μg CD33-IgG1 or 0.1 μM IRAK4 inhibitor, 24 hours
  reduction of fraction of pyroptotic cells, maximum lineage-specific change, progenitor cells: 23%
MDS BM-MNC [1]; CD34+CD38− stem cells, 0.5 μg CD33-IgG1 or 0.1 μM IRAK4 inhibitor, 24 hours
  reduction of fraction of pyroptotic cells, maximum lineage-specific change, stem cells: 44%
MDS BM-MNC [1]; CD71+ erythroids, 0.5 μg CD33-IgG1 or 0.1 μM IRAK4 inhibitor, 24 hours
  reduction of fraction of pyroptotic cells, maximum lineage-specific change, CD71+ cells: 64%
MDS BM-MNC [1]; MDS BM-MNC (n=4), autologous BM plasma, 0.5 μg CD33-IgG1 or 0.1 μM IRAK4 inhibitor
  fraction of pyroptotic cells across all lineages studied: marked reduction
MDS BM-MNC [1]; short-term treatment with the chimeric receptor
  MDSC fraction: significantly reduced
MDS BM-MNC [2]
  CASP3 expression: markedly reduced
  expression of CASP1, IL-1β, IL-18, and NLRP3: reduced
